Laboratory results taken from patent US20260200999A1, “SYNTHETIC TRANSCRIPTION FACTORS” (ETH ZURICH, priority 2022, published 2026).
“Also recorded” adds a separate entry of the source.

Experiments:
[1] = test system: endogenous human genes in HEK293 cells; assay: RNA-Seq differential gene expression analysis of transfected HEK293 cells versus junk plasmid (edgeR); format: cell-based; conditions: transfected HEK293 cells vs "junk" plasmid, FDR<0.5, fold-change of at least 2
Description: The inventors therefore used RNA-Seq to investigate whether MTF (SEQ ID NO: 100) activates the expression of endogenous human genes. The inventors also transfected WT MTERF1 (SEQ ID NO: 108) to compare the gene-regulatory effects of MTERF1 to those of MTF. Differential gene expression analysis was performed against cells that were transfected with a “junk” plasmid using the edgeR software package for R [24]. […] Future investigations will assess the dose-dependency of differentially expressed (DE) genes on MTF amount and may help clarify the origin of DE genes.

[2] = target: T1, MTF (MTERF1 58-399::RelA 430-551) (Homo sapiens, UniProt Q99551 SEQ:2-343); assay: cell_activity; mCitrine, HEK293; none without MTF; conditions: tags: RelA 430-551 TAD fusion
T1 chain: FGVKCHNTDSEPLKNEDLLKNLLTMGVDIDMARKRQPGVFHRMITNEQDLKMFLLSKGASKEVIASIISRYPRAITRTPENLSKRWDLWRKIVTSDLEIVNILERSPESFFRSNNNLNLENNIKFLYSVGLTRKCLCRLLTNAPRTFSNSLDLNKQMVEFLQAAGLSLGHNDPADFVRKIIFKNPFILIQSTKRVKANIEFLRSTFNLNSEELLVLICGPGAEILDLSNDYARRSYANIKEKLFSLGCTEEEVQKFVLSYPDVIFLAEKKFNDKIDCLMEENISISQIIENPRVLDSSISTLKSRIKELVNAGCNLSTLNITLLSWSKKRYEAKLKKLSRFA
Excerpt: The inventors next sought to facilitate potential future applications and created a collection of promoters with different strengths to match potential future applications' requirements. Randomly picking 20 variants yielded mostly weak promoters. To maximize diversity in size and strength, the inventors chose 19 further promoters based on their high activity score or small genetic size. Altogether, the inventors created a promoter collection spanning a wide range of sizes and strengths (FIG. 15A, B). After co-transfecting each variant either with or without a MTF plasmid amount corresponding to the EC90, and a mCherry transfection control plasmid into HEK293 cells, relative mCitrine levels were measured using flow cytometry. […]

[3] = test system: Response Element-driven mCerulean reporter (MTERF1 binding sites, SEQ ID NO: 42); assay: mCerulean reporter co-transfection with HumTAP constructs in HEK293 cells (flow cytometry); format: cell-based, human; conditions: HEK cells
Method in brief: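 HEK293 cells co-transfected with MTERF1(58-399) DNA-binding domain–transactivation domain fusions, a reporter of 5× MTERF1 binding sites without spacer upstream of a minimal TATA box driving mCerulean, and a constitutive transfection control. mCerulean measured by flow cytometry and normalized to the transfection control; no-fusion cells serve as negative control.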

[4] = test system: Response Element-driven mCerulean reporter; assay: Dose dependency of mCerulean reporter expression on transfected MTF construct amount, HEK293; format: cell-based, human; conditions: HEK293, 24-well plates, 100 ng reporter construct, Hill equation, Hill coefficient 1
Description: By transfecting different amounts of the codon optimized MTF construct into HEK293 cells the inventors established a dose dependency of mCerulean reporter (Gol) expression on the expression levels of MTF (FIG. 3). HEK293 cells in 24-well plates were transfected with 0.75, 3, 6, 12, 24, 48, 96, 192, and 384 ng of MTF construct, 100 ng of reporter construct, and 50 ng of constitutive mCherry transfection control construct. Two days after transfection, the cells were analyzed using flow cytometry. The dose-response curve was modeled as a Hill equation assuming a Hill coefficient of 1.

[5] = test system: reporter construct with MTERF1 binding sites (SEQ ID NO: 42) upstream a minimal TATA box driving mCerulean; assay: mCerulean reporter co-transfection with MTF construct in Hela cells (microscopy, flow cytometry); format: cell-based, human; conditions: Hela cells; 5xRE 6 bp spacer reporter (SEQ ID NO: 44); versus naturally used codons
Excerpt: The inventors engineered an exemplary “Human-derived transcriptional activator protein” (HumTAP) transactivation system by engineering a HumTAP transactivator and a promoter comprising the Response Elements/MTERF1 binding sites that is operably linked to a gene of interest. A prototype HumTAP protein was made by fusing a peptide consisting of amino acids 58 through 399 of the human MTERF1 gene (MTERF158-399 (SEQ ID NO: 1), Uniprot Q99551) to a peptide consisting of amino acids 430 through 551 of the RELA protein (RelA430-551 (SEQ ID NO: 3), Uniprot Q04206). This fusion is henceforth referred to as MTERF158-399::RelA430-551 (or “MTF”; SEQ ID NO: 100). A DNA construct was made with a strong EF1A promoter driving a constitutive expression of MTF (SEQ ID NO: 101) in human cells (“MTF construct”).
To construct a promoter with Response Elements/MTERF1 binding sites driving the gene of interest, the inventors placed MTERF1 binding sites (SEQ ID NO: 42) upstream a minimal TATA box (SEQ ID NO: 103). An mCerulean fluorescent reporter representing the gene of interest (Gol) was placed downstream of the TATA box. Each of these is referred to as a reporter construct. […] Using flow cytometry, relative mCerulean levels were measured and calculated by normalization to the transfection control in Hela cells (FIG. 1C). […]

B1: WT MTERF1: human MTERF1, Uniprot Q99551, including the mitochondrial transfer peptide (protein, listed as Homo sapiens)
chain: MQSLSLGQTSISKGLNYLTIMAPGNLWHMRNNFLFGSRCWMTRFSAENIFKSVSFRLFGVKCHNTDSEPLKNEDLLKNLLTMGVDIDMARKRQPGVFHRMITNEQDLKMFLLSKGASKEVIASIISRYPRAITRTPENLSKRWDLWRKIVTSDLEIVNILERSPESFFRSNNNLNLENNIKFLYSVGLTRKCLCRLLTNAPRTFSNSLDLNKQMVEFLQAAGLSLGHNDPADFVRKIIFKNPFILIQSTKRVKANIEFLRSTFNLNSEELLVLICGPGAEILDLSNDYARRSYANIKEKLFSLGCTEEEVQKFVLSYPDVIFLAEKKFNDKIDCLMEENISISQIIENPRVLDSSISTLKSRIKELVNAGCNLSTLNITLLSWSKKRYEAKLKKLSRFA
[1]
  DE genes, Regulation Up (up-regulated gene, Symbol): GDF15; also recorded: TRPV6; also recorded: HSPA7

B2: sense-5-8-10 promoter (dsDNA)
DNA 1: TAAGATGGCAGAGCCCGGTAATAGAGTGCGTAAGATGGCAGAGCCCGGTAATAGAGTGCGTAAGATGGCAGAGCCCGGTAATAGAGTGCGTAAGATGGCAGAGCCCGGTAATAGAGTGCGTAAGATGGCAGAGCCCGGTAATGACTCATATGCTCTAGAGGGTATATAATGGGGGCC
DNA 2: GGCCCCCATTATATACCCTCTAGAGCATATGAGTCATTACCGGGCTCTGCCATCTTACGCACTCTATTACCGGGCTCTGCCATCTTACGCACTCTATTACCGGGCTCTGCCATCTTACGCACTCTATTACCGGGCTCTGCCATCTTACGCACTCTATTACCGGGCTCTGCCATCTTA
[2]
  binding signal: 2 fold vs sense-5-9-8

B3: codon optimized MTF construct: DNA construct encoding MTF with codons changed to the most common ones in humans (nucleic acid)
DNA: ATGTTCGGCGTGAAGTGCCACAACACCGACAGCGAGCCCCTGAAGAACGAGGACCTGCTGAAGAACCTGCTGACCATGGGCGTGGACATCGACATGGCCCGCAAGCGCCAGCCCGGCGTGTTCCACCGCATGATCACCAACGAGCAGGACCTGAAGATGTTCCTGCTGAGCAAGGGCGCCAGCAAGGAGGTGATCGCCAGCATCATCAGCCGCTACCCCCGCGCCATCACCCGCACCCCCGAGAACCTGAGCAAGCGCTGGGACCTGTGGCGCAAGATCGTGACCAGCGACCTGGAGATCGTGAACATCCTGGAGCGCAGCCCCGAGAGCTTCTTCCGCAGCAACAACAACCTGAACCTGGAGAACAACATCAAGTTCCTGTATAGCGTGGGCCTGACCCGCAAGTGCCTGTGCCGCCTGCTGACCAACGCCCCCCGCACCTTCAGCAACAGCCTGGACCTGAACAAGCAGATGGTGGAGTTCCTGCAGGCCGCCGGCCTGAGCCTGGGCCACAACGACCCCGCCGACTTCGTGCGCAAGATCATCTTCAAGAACCCCTTCATCCTGATCCAGAGCACCAAGCGCGTGAAGGCCAACATCGAGTTCCTGCGCAGCACCTTCAACCTGAACAGCGAGGAGCTGCTGGTGCTGATCTGCGGCCCCGGCGCCGAGATCCTGGACCTGAGCAACGACTACGCCCGCCGCAGCTACGCCAACATCAAGGAGAAGCTGTTCAGCCTGGGCTGCACCGAGGAGGAGGTGCAGAAGTTCGTGCTGAGCTACCCCGACGTGATCTTCCTGGCCGAGAAGAAGTTCAACGACAAGATCGACTGCCTGATGGAGGAGAACATCAGCATCAGCCAGATCATCGAGAACCCCCGCGTGCTGGACAGCAGCATCAGCACCCTGAAGAGCCGCATCAAGGAGCTGGTGAACGCCGGCTGCAACCTGAGCACCCTGAACATCACCCTGCTGAGCTGGAGCAAGAAGCGCTACGAGGCCAAGCTGAAGAAGCTGAGCCGCTTCGCCCAGGCCGGCGAGGGCACCCTGAGCGAGGCCCTGCTGCAGCTGCAGTTCGACGACGAGGACCTGGGCGCCCTGCTGGGCAACAGCACCGACCCCGCCGTGTTCACCGACCTGGCCAGCGTGGACAACAGCGAGTTCCAGCAGCTGCTGAACCAGGGCATCCCCGTGGCCCCCCACACCACCGAGCCCATGCTGATGGAGTACCCCGAGGCCATCACCCGCCTGGTGACCGGAGCACAAAGACCCCCTGATCCTGCGCCAGCACCTCTTGGAGCACCTGGCCTGCCCAACGGCCTGCTGAGCGGCGACGAGGACTTCAGCAGCATCGCCGACATGGACTTCAGCGCCCTGCTGAGCCAGATCAGCAGC
[3]
  effect of codon optimization on reporter fluorescence levels: no significant effect
[4]; two days after transfection
  EC10 of transfected MTF construct: 1.25 ng
  EC50 of transfected MTF construct: 11.24 ng
[4]; slight drop at higher amounts
  theoretical EC90 of transfected MTF construct: 101 ng
[5]
  increase of reporter gene expression by codon optimization: ca. 3 fold
